This data set in a line: soluble fraction after stress (log2 fold change); higher = more stays soluble; pooled small domains, quantitative proteomics. To be noted: stress: 75 degC.
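Note: 20 min heating vs room temperature control held 20 min.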

On to “HMGLVLIDSYNDIGSAKLITNKIRNLGLIFEENENKINVFAGPFEKNDINLKIDFLIRNGYTNAQLY”, for which the “soluble fraction (log2)” value was -3.08.

For the sequence “HMGLVQQSAQKSDDAAKLMAANNLNAAQSKYQLPDEAEKDFFTFAFERGYAVEDFVDAGLVDKIMADFSA”, the “soluble fraction (log2)” value was -0.447.

For “HMGLVVIGTEAGYPAEKAGILAGDRIRKLNGAAVPDYDTFLTALAARKGEPSAIELERDGKTLEVTVSPL”, the “soluble fraction (log2)” value is 0.105.

Regarding “HMGLWWTEAERELVKTTIEQLYKDTNIAEPVDSKNLRASIPALKAMRTGLSAENQARVDTLLGALQV”, the “soluble fraction (log2)” value is -0.462.

As to “HMGMAGILDSARMASFIQEKLGYGGGQIRASVMGGHGDDMVPLPRYSTVAGVPLSDVLTQNEIDEMFAQ”, the “soluble fraction (log2)” value is -0.0337.

Consider “HMGMDALIGRRVFVSEEILPGDTGGRMAVDGDSWRAISVGTASNIPAGTEVRIRGHQSLVLEVEP”, for which the “soluble fraction (log2)” value is -0.169.

As for “HMGMEENLLKERKQILMDIMKSKEYQPMKVKELAMVLNVPKEDREELRYVLNELMNEGKIVESKKGKFSIA”, the “soluble fraction (log2)” value was 0.129.

As to “HMGMESFWNRVANLLNTSTVVELAQILDVKRSTLSSWIHSDRRPPMEVLLKITRLTGVDIHRLE”, the “soluble fraction (log2)” value is -2.59.

Turning to “HMGMETQLSPKEKSIYTIIQNRPNIQSGEVSEKLAIPLPTVKRILSDLINKGLIEKQGSGRNVSYTI”, the “soluble fraction (log2)” value is 0.338.

For “HMGMFNENLRFLRQKRQMSQQAFASILGIPRTTYSEYEKGNTEPNLKLLIRLSELLDVSLDNLISDDLTHN”, the “soluble fraction (log2)” value is -2.82.

With “HMGMKTSQKLARQREIVRLIRAQTIRTQAELADALRERAFPVSQPTLSKDIAELGLIKVPLPDSGYRYQLP”, the “soluble fraction (log2)” value is -1.73.

Take “HMGMNKEHFIIELKIYLKALNPKDQAIILAKYKALFDARVAEGETEEQVAKSLGKPRVIAEEILKEQGIE”: the “soluble fraction (log2)” value is -3.26.

In the case of “HMGMSMNEFLNNRLEQLAVEAVDKSSLGEEIFFYAEPATINLFKDAVDEDEYKVVFPVLKSIIEVEQKLSR”, the “soluble fraction (log2)” value is -1.24.

As for “HMGMTAPIPGVVLKVSVLPGQKVERGDELLTIEAMKMFNVMRSPSSGTIATVHIKDGDRVVQGQPLVTFA”, the “soluble fraction (log2)” value was -0.555.

“HMGMTTSILDDVIGMGPKRKKALLKAFGSFGALRNATLEEIKQTHTVPEQVAEDVYAVLVQYNSKSE”: the “soluble fraction (log2)” value was -0.681.

Regarding “HMGMVKLNEEYLEKVKKHRKELHITQLQISKKLGWSLSRYQRFESGFYKEIEDDAPKKIKEEFGIDYSLL”, the “soluble fraction (log2)” value was -0.726.

Take “HMGNGALLTLTVKERQVIQLVAEGKSNKQIARDLNVTPETIKSHMKNIFAKLKVDNRAQAAVMVQQ”: the “soluble fraction (log2)” value was -2.16.

On to “HMGNGDTNERIATLMQILAKQESIINQYGLENPVVSPQMYVRTLKKVVELSGFKDASSYFADIPDGWKA”, for which the “soluble fraction (log2)” value turned out to be 0.0405.

Regarding “HMGNIADARRDASYVFLIGEWAKSSNLTEKKLAGLIQSNHLDIKYGITVTDVIADIRKYKNDPTYNPF”, the “soluble fraction (log2)” value is -2.19.

In the case of “HMGNIKVPSVMGMTLEGAEKVAKDNGAVIEVLEYKESTEEDGTIIEQSPKADMTVATLEKISVVISGK”, the “soluble fraction (log2)” value came to 0.161.

In the case of “HMGNIYKALLGKLEKQLGFLPEGTKLPPEQELAEKFGVSKPTLRRALAELAVRGIIVKQNGIGSVVAGS”, the “soluble fraction (log2)” value was -0.55.

With “HMGNKKLVLKLSKKLIKIPSFLNIYSVKLTKNGRELEINLDKSQNEAIDIINLIKKNNISFLEFDIKKR”, the “soluble fraction (log2)” value was -1.43.

Consider “HMGNLIIFYDAQTGSAPLLKAVKTSGATLVYEYKNLHGIAIRPSSKTSIEDAIAYFKKVNGVLSVE”, for which the “soluble fraction (log2)” value was -3.77.

On to “HMGNPSGLPLPRFASTRSEPINVRVGPGQKYDIAWTYLKSGIPVEIIQEFDTWRKIRDFDGAEGWIHQNLL”, for which the “soluble fraction (log2)” value was -1.22.

Take “HMGNSRNDQDLQTQIIKILAEGPASSRTLIETLTIEDEAALLKTLKRLLMNKKISLTPSNLYKL”: the “soluble fraction (log2)” value was -1.06.

As to “HMGPAAGVVEKYNLAHLSTGEMIRKEIAEGSDFGKMAAGIINKGELLSDEFVVALIENSIEHHKNVDGFLF”, the “soluble fraction (log2)” value was -0.195.

Consider “HMGPAVGAIRVEGNKRVEPETVRTYLTFNVGDPYDLAKVDESLKALFATGLFQDVRIRREGNTVVIVVVEN”, for which the “soluble fraction (log2)” value was -0.701.

With “HMGPAYQTQRQEAFAALSEIAAKNPQLMQVAGDLVFRAADFPMADELADRLAKTLPPQLQDKKGQP”, the “soluble fraction (log2)” value was -0.455.

For “HMGPEISEDAKVVFDRLKNHDEILLNNFKSEFDLSNKKWDKIIKELRGNDLISIIKSEDGNLFIKP”, the “soluble fraction (log2)” value was -0.125.

As to “HMGPELGENEKLIFDIIKKESKMELGILKAQVDLSNKKWDKALKGLATHGLTKVNKTDDGLFIELI”, the “soluble fraction (log2)” value was -0.555.

Take “HMGPIITKTYNLSYATARDVNDIIKSKKSARGDIVIDTRTNSLIVSDVQEKIDLIDEIVATL”: the “soluble fraction (log2)” value was -0.368.

As for “HMGPLSDRSVADWLLRLGLADTANNRLLLQVMHAAGLPLERTAVRAMRETAAGRPEGTDAREWLQAAAAAQ”, the “soluble fraction (log2)” value is -0.571.

Turning to “HMGPNSVPDLRGKSLRQAMKMVNDLELKAIFEGEGIVVGQVPAPGKPVPETKILKITLSLEPY”, the “soluble fraction (log2)” value is -1.58.

On to “HMGPPAVGSKLQDARKAQQLSLDELSKRAGVSKSMLSEVERNQANPTVGVLWRLATALGISLTDLLG”, for which the “soluble fraction (log2)” value was -1.11.

For the sequence “HMGPPLISLDDGLAKGFGVGVGDTLTINILGRRITATIASLREIDWQSLRFDFAVVLSPGVLEGA”, the “soluble fraction (log2)” value was 0.237.

For “HMGPRKAGSEATRQKILDAAEILFAERGFHSVSVRDITTEAGVDVALINYHFGSKQLLFETVFMRR”, the “soluble fraction (log2)” value is -0.32.

As for “HMGPRPLPAEFTHPSLRALLALGTTRGGVTSADVKTALEAASVPAGRRAAVLRALDDNGIEVHTEP”, the “soluble fraction (log2)” value was -0.0155.

Take “HMGPSEVTLDNFVGKNYTDVVNDTSYQFTFKKEEKSDQTHAAGIIIAQSPKKGIKVKSNSTVTLTVSTG”: the “soluble fraction (log2)” value is 0.359.

Consider “HMGPVDFYQMFISELQHLAEKPVTVDALIESTQLHKSQLTEWLKRAVDDGVVKKLNRPARFQVKNK”, for which the “soluble fraction (log2)” value is 0.0567.

Turning to “HMGPVRDLGLLESAAHRPTTALWGRDVYATIEKKAAALLDSLVRDRPLADGNKRLGWLAALV”, the “soluble fraction (log2)” value was 0.291.

Regarding “HMGPYGAGSAAPAEDGSGPEGWTVKGNAKSMLYHTEGSPYYGRTNADVWFRDEESAEAAGFRRWDRK”, the “soluble fraction (log2)” value is -0.0366.

As to “HMGQAELPYSEFLREVNNGQVKSVIIEGSEITGFYKTSGTSFNVIAPDDPKLVERLMAQGVEVRAQPA”, the “soluble fraction (log2)” value was found to be 0.144.

For “HMGQDLEAFLLKAVGQLDQGDGVTLDALLKVAVSNGGFVREVAEAKLDDMLDAGTLDEPRFGWFRVGAT”, the “soluble fraction (log2)” value was -0.41.

For “HMGQDLSYYIKIVQNQQPVDPLTGEPKVLDYGEVIRQAQILQMLDTGDLDRDKAIGQLSMKDAL”, the “soluble fraction (log2)” value came out at 0.292.

For “HMGQELRFVIQDHEAGIRLDHYLTQQVEGYSRSHLRKLMDQGLITVDGSYRKAGYRLNVGDVIHVVIPPTR”, the “soluble fraction (log2)” value was -0.813.

As for “HMGQELTPVERTALDIAARDGKVSTRILAQEAGIGLRTASKTLAALAERGLLTWHGTSRRDPQQHYTS”, the “soluble fraction (log2)” value is -0.0688.

For the sequence “HMGQISDESVLKEMVVQLIADNPKEVASYLGGKETLLQWFMGQVARATKGKADPQAVKQLLLDEFEKLK”, the “soluble fraction (log2)” value was 0.0498.

For the sequence “HMGQKETIVDLLKTNGTMTQLALAEAIYGDKNHGPNIYSVLMGRVNSGAVLRTGSQPAYYSLSG”, the “soluble fraction (log2)” value is 0.209.

Turning to “HMGQKMLTIELQEKVNKMPDNLASYDLKLSADGMSLIYKYSLKSERTGITALLQELKNAGLVMRDLKTEQ”, the “soluble fraction (log2)” value was -0.641.

“HMGQLSDREALTVLAREALVELPRAAGDYRNGRTAALQSLVGRVMRKTAGRGNPALLQEIFRSLL”: the “soluble fraction (log2)” value was -0.542.

On to “HMGQLVVHQIKGEASRLDKFLVVNIPKYSRSVWREMINNGSVQVNGRVVKPHLLVKEGDIITWSS”, for which the “soluble fraction (log2)” value is -1.4.

Regarding “HMGQLVYPAGVYDVNKSYITDSNSAPYVLDKTDNNYYVLNTQMTWKGTEQDNKTPSQSYEESGGSVWLLFD”, the “soluble fraction (log2)” value is -0.118.

Turning to “HMGQPAVSSRDVAEQFGKEHRNVIQSIKNLIAENSALTFMFIEDTYTAGTGKKYPMYYMNRDGFTLLA”, the “soluble fraction (log2)” value was found to be 0.337.

In the case of “HMGQPGNWTSYVFKNSDTEPAKPTSSGPIPSGWNDAPTGVGIWWMSKATIDASTGKAGSWSTPIRVTGED”, the “soluble fraction (log2)” value was -0.0861.

With “HMGQSKNERMLELVELLNKASRSYYQDAQEIMSNYEYDRLYDELQNLEKELGITLSNSPTVN”, the “soluble fraction (log2)” value was -0.122.

For the sequence “HMGQVSDETGLARVVDALLAAHPDEVAKYRAGKTSLLGWFMGQVMKETRGQANPDLARALVLERLE”, the “soluble fraction (log2)” value is -0.342.

As for “HMGQYSTTLDKIENSLFGFTYSNEAENTRINRIENKVYGKTSTSQTSTRIAKLKKDLSVDEMG”, the “soluble fraction (log2)” value was found to be 0.111.

On to “HMGREVVVPNLAGIEKEVALDLLKKNRLGGMITGTRFSSDFPAGQVIQQMPEAGSRVKVGKQVKLVLSEG”, for which the “soluble fraction (log2)” value was found to be 0.207.

Turning to “HMGRGSEDEQMRGLAVILAEQKQIMQTLGVENEVVKPEQYINTLKRMAELNGFKDTDQFFSIPQ”, the “soluble fraction (log2)” value was 0.26.

As for “HMGRHSPLSIEQKEQLKTEIVALQQQRGGGRVTAVNIAELIQQKFNVVYNPNSLYKLLKQIGMSWV”, the “soluble fraction (log2)” value was -1.94.

On to “HMGRKEIIVPNLLGKYAIEAGTILKNAGLLEGQAREENSDTYPAGQIMDQFPKANTPANENDKVDYVVSI”, for which the “soluble fraction (log2)” value was not below 1.04.

Consider “HMGRLEVDLVVPYDKYEAMNVIRAEGRILKEDHQGDGAHLKIQINETALWKLKRMLGEGYGQ”, for which the “soluble fraction (log2)” value was -0.13.

Regarding “HMGRLPMNIVRAIVEHLDRHASYSEINRATGASKGFISKVAAAVEAASLTPEKFLLLNDEDIQNRITPGR”, the “soluble fraction (log2)” value is -0.739.

“HMGRPTLEQLLDRAQAMGVPRERYAAYADRRWGRGWRVNPHGRGRAWDELDRYRNDPAGYLDKIEVELNQL”: the “soluble fraction (log2)” value is -0.341.

Take “HMGRQVTVPNVTGMLVEEARAAISEAELWVDSPRAVQGEVTRQEPARGERLSPGQEVRIYTES”: the “soluble fraction (log2)” value amounted to 0.204.

For the sequence “HMGRRSKAMLSSALDAVPGLGEMRRKALISQFGSLKKLRGATPEEIAAVPGIGPKLAAAVHEAVSG”, the “soluble fraction (log2)” value was -0.0903.

Regarding “HMGRSTQVPGVEKMTYSQAVQLLHDHGFRVDIRDSLYRDDIKPGHVIEQFPKAKSIVKPGRKIFLYINAV”, the “soluble fraction (log2)” value was -1.43.

“HMGRTGTVVVSPSLNVRTGPWGEIIGSLYNGNKVEIIGSSGDWYQISFGGKTAYVHSDYVVDGG”: the “soluble fraction (log2)” value is -1.26.

Turning to “HMGSDAFDISKLNLVGKTKESAESLLKENGFSVDTKEEASDTAAKGTVISYSPTKPKNGERVTLTVSSGK”, the “soluble fraction (log2)” value worked out at 0.385.

In the case of “HMGSDQEAAMARQDRLSTLVDYVVERGSVHVDDIVADLGVSPATVRRDLDALAAQQLIIRTRGGATANHT”, the “soluble fraction (log2)” value worked out at 0.034.

The values above are taken from the domain aggregation screens of Martell et al. (2025).
